Source: article PMC6077249, “Insights into Centromere DNA Bending Revealed by the Cryo-EM Structure of the Core Centromere Binding Factor 3 with Ndc10”

Experiments:
Cep3 full length = Cep3 full length (Saccharomyces cerevisiae, UniProt P40969 1-608); assay: EMSA; DNA 1.6 uM, protein 6.4 uM; binds tightly; EMSA: 25 mM HEPES pH 8.0, 200 mM KCl, 2 mM DTT, 10% glycerol, 0.02% NP-40, 10 mM MgCl2, 10 uM ZnCl2; room temperature 45 min; native PAGE at 4 C; details: protein: recombinant; tags: N-terminal His; chain copies: 2; label: fluorescent label, singly or doubly labeled
Cep3 full length, sequence (P40969 whole entry): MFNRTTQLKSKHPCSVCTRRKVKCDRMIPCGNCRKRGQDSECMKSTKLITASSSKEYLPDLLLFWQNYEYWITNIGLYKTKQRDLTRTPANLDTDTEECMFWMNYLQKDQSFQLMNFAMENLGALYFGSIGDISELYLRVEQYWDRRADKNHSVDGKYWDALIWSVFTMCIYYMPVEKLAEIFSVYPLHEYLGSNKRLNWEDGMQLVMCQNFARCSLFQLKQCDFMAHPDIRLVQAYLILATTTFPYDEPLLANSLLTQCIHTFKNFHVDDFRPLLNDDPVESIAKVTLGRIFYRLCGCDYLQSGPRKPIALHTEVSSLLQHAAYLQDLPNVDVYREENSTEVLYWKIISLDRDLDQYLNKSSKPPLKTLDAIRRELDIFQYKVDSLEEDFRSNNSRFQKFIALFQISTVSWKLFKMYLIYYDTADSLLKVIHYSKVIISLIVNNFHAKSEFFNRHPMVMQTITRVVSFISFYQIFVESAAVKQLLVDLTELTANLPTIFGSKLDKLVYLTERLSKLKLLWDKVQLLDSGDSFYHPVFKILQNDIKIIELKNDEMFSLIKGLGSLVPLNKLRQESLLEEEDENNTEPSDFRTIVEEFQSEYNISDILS

Cep3ΔN = Cep3ΔN (Saccharomyces cerevisiae, UniProt P40969 47-608); assay: EMSA; DNA 1.6 uM; EMSA: 25 mM HEPES pH 8.0, 200 mM KCl, 2 mM DTT, 10% glycerol, 0.02% NP-40, 10 mM MgCl2, 10 uM ZnCl2; room temperature 45 min; native PAGE at 4 C; details: protein: recombinant; tags: N-terminal His; chain copies: 2; label: fluorescent label, singly or doubly labeled
Cep3ΔN, sequence (P40969 47-608, stated change not applied): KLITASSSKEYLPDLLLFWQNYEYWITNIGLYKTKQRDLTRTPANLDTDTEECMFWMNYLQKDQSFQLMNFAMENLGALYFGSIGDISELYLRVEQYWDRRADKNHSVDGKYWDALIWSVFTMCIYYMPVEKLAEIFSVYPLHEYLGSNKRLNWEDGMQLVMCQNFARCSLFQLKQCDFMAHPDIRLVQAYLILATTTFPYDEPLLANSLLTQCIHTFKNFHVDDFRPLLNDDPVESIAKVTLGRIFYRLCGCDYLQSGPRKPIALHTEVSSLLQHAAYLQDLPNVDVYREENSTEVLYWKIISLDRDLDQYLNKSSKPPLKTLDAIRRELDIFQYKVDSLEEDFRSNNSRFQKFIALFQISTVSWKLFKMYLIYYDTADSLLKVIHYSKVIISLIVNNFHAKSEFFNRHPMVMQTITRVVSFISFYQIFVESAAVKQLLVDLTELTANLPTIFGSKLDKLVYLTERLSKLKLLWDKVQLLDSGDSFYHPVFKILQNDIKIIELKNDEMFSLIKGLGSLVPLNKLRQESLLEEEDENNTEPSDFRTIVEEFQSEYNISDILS

Ctf13;Skp1;Cep3ΔN [1] = target: T1, Ctf13;Skp1;Cep3ΔN (Saccharomyces cerevisiae;Saccharomyces …, UniProt P35203;P52286;P40969 1-478;1-194;47-608, ||); assay: as above; details: protein: recombinant;recombinant;recombinant; tags: C-terminal CBP;;N-terminal His; copies: 1;1;2; label: fluorescent label, singly or doubly labeled
T1 sequence (P35203 whole entry, stated change not applied, chain 1 of 3): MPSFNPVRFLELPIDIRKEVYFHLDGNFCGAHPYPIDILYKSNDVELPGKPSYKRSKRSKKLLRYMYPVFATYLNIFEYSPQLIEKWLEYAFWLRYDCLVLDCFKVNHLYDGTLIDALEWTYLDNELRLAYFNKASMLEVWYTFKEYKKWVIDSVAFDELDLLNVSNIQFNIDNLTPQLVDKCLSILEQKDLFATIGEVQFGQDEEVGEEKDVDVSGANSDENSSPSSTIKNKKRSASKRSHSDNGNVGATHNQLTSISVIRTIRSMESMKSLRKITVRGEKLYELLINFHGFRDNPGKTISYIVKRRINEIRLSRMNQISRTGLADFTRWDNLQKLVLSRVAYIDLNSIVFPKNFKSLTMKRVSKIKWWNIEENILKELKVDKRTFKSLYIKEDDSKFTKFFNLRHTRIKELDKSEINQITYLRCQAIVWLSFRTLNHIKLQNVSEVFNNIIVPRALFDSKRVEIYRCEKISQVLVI
T1 sequence (P52286 whole entry, stated change not applied, chain 2 of 3): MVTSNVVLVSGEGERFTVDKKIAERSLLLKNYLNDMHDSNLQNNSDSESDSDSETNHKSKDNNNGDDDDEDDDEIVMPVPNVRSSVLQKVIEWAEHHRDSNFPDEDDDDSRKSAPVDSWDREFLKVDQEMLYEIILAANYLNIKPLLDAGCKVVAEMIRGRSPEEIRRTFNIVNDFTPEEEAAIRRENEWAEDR
T1 sequence (P40969 47-608, stated change not applied, chain 3 of 3): as the sequence (P40969 47-608, stated change not applied) above

Ctf13;Skp1;Cep3ΔN [2] = target: T1, Ctf13;Skp1;Cep3ΔN; assay: competition; 80 uM unlabeled competitor, 50x; competes labeled CDEIII; EMSA: 25 mM HEPES pH 8.0, 200 mM KCl, 2 mM DTT, 10% glycerol, 0.02% NP-40, 10 mM MgCl2, 10 uM ZnCl2; room temperature 45 min; native PAGE at 4 C; details: protein: recombinant;recombinant;recombinant; tags: C-terminal CBP;;N-terminal His; copies: 1;1;2

Binder	binding result (Cep3 full length)	binding result (Cep3ΔN)	binding result (Ctf13;Skp1;Cep3ΔN [1])	binding result (Ctf13;Skp1;Cep3ΔN [2])
CDEIII labeled (dsDNA) DNA 1: AATATTAGTGTATTTGATTTCCGAAAGTTAAA DNA 2: TTTAACTTTCGGAAATCAAATACACTAATATT	binds	no binding	binds	
CDEIII unlabeled competitor (dsDNA) DNA 1: AATATTAGTGTATTTGATTTCCGAAAGTTAAA DNA 2: TTTAACTTTCGGAAATCAAATACACTAATATT				binds
